Measurements taken from article PMC4912689, “The Extracellular Surface of the GLP-1 Receptor Is a Molecular Trigger for Biased Agonism” (Cell, 2016).

B1: glucagon-like peptide 1 receptor (GLP-1R), wild-type, P43220 F381A (protein)
chain: RPQGATVSLWETVQKWREYRRQCQRSLTEDPPPATDLFCNRTFDEYACWPDGEPGSFVNVSCPWYLPWASSVPQGHVYRFCTAEGLWLQKDNSSLPWRDLSECEESKRGERSSPEEQLLFLYIIYTVGYALSFSALVIASAILLGFRHLHCTRNYIHLNLFASFILRALSVFIKDAALKWMYSTAAQQHQWDGLLSYQDSLSCRLVFLLMQYCVAANYYWLLVEGVYLYTLLAFSVLSEQWIFRLYVSIGWGVPLLFVVPWGIVKYLYEDEGCWTRNSNMNYWLIIRLPILFAIGVNFLIFVRVICIVVSKLKANLMCKTDIKCRLAKSTLTLIPLLGTHEVIFAFVMDEHARGTLRAIKLFTELSFTSFQGLMVAILYCFVNNEVQLEFRKSWERWRLEHLHIQRDSSMKPLKCPTSSLSSGATAGSSMYTATCQASCS
B2: glucagon-like peptide 1 receptor (GLP-1R), wild-type, P43220 D215A (protein)
chain: RPQGATVSLWETVQKWREYRRQCQRSLTEDPPPATDLFCNRTFDEYACWPDGEPGSFVNVSCPWYLPWASSVPQGHVYRFCTAEGLWLQKDNSSLPWRDLSECEESKRGERSSPEEQLLFLYIIYTVGYALSFSALVIASAILLGFRHLHCTRNYIHLNLFASFILRALSVFIKDAALKWMYSTAAQQHQWAGLLSYQDSLSCRLVFLLMQYCVAANYYWLLVEGVYLYTLLAFSVLSEQWIFRLYVSIGWGVPLLFVVPWGIVKYLYEDEGCWTRNSNMNYWLIIRLPILFAIGVNFLIFVRVICIVVSKLKANLMCKTDIKCRLAKSTLTLIPLLGTHEVIFAFVMDEHARGTLRFIKLFTELSFTSFQGLMVAILYCFVNNEVQLEFRKSWERWRLEHLHIQRDSSMKPLKCPTSSLSSGATAGSSMYTATCQASCS
B3: glucagon-like peptide 1 receptor (GLP-1R), wild-type, P43220 L290A (protein)
chain: RPQGATVSLWETVQKWREYRRQCQRSLTEDPPPATDLFCNRTFDEYACWPDGEPGSFVNVSCPWYLPWASSVPQGHVYRFCTAEGLWLQKDNSSLPWRDLSECEESKRGERSSPEEQLLFLYIIYTVGYALSFSALVIASAILLGFRHLHCTRNYIHLNLFASFILRALSVFIKDAALKWMYSTAAQQHQWDGLLSYQDSLSCRLVFLLMQYCVAANYYWLLVEGVYLYTLLAFSVLSEQWIFRLYVSIGWGVPLLFVVPWGIVKYAYEDEGCWTRNSNMNYWLIIRLPILFAIGVNFLIFVRVICIVVSKLKANLMCKTDIKCRLAKSTLTLIPLLGTHEVIFAFVMDEHARGTLRFIKLFTELSFTSFQGLMVAILYCFVNNEVQLEFRKSWERWRLEHLHIQRDSSMKPLKCPTSSLSSGATAGSSMYTATCQASCS
B4: glucagon-like peptide 1 receptor (GLP-1R), wild-type, P43220 I382A (protein)
chain: RPQGATVSLWETVQKWREYRRQCQRSLTEDPPPATDLFCNRTFDEYACWPDGEPGSFVNVSCPWYLPWASSVPQGHVYRFCTAEGLWLQKDNSSLPWRDLSECEESKRGERSSPEEQLLFLYIIYTVGYALSFSALVIASAILLGFRHLHCTRNYIHLNLFASFILRALSVFIKDAALKWMYSTAAQQHQWDGLLSYQDSLSCRLVFLLMQYCVAANYYWLLVEGVYLYTLLAFSVLSEQWIFRLYVSIGWGVPLLFVVPWGIVKYLYEDEGCWTRNSNMNYWLIIRLPILFAIGVNFLIFVRVICIVVSKLKANLMCKTDIKCRLAKSTLTLIPLLGTHEVIFAFVMDEHARGTLRFAKLFTELSFTSFQGLMVAILYCFVNNEVQLEFRKSWERWRLEHLHIQRDSSMKPLKCPTSSLSSGATAGSSMYTATCQASCS
B5: glucagon-like peptide 1 receptor (GLP-1R), wild-type, P43220 V287A (protein)
chain: RPQGATVSLWETVQKWREYRRQCQRSLTEDPPPATDLFCNRTFDEYACWPDGEPGSFVNVSCPWYLPWASSVPQGHVYRFCTAEGLWLQKDNSSLPWRDLSECEESKRGERSSPEEQLLFLYIIYTVGYALSFSALVIASAILLGFRHLHCTRNYIHLNLFASFILRALSVFIKDAALKWMYSTAAQQHQWDGLLSYQDSLSCRLVFLLMQYCVAANYYWLLVEGVYLYTLLAFSVLSEQWIFRLYVSIGWGVPLLFVVPWGIAKYLYEDEGCWTRNSNMNYWLIIRLPILFAIGVNFLIFVRVICIVVSKLKANLMCKTDIKCRLAKSTLTLIPLLGTHEVIFAFVMDEHARGTLRFIKLFTELSFTSFQGLMVAILYCFVNNEVQLEFRKSWERWRLEHLHIQRDSSMKPLKCPTSSLSSGATAGSSMYTATCQASCS
B6: glucagon-like peptide 1 receptor (GLP-1R), wild-type, P43220 D293A (protein)
chain: RPQGATVSLWETVQKWREYRRQCQRSLTEDPPPATDLFCNRTFDEYACWPDGEPGSFVNVSCPWYLPWASSVPQGHVYRFCTAEGLWLQKDNSSLPWRDLSECEESKRGERSSPEEQLLFLYIIYTVGYALSFSALVIASAILLGFRHLHCTRNYIHLNLFASFILRALSVFIKDAALKWMYSTAAQQHQWDGLLSYQDSLSCRLVFLLMQYCVAANYYWLLVEGVYLYTLLAFSVLSEQWIFRLYVSIGWGVPLLFVVPWGIVKYLYEAEGCWTRNSNMNYWLIIRLPILFAIGVNFLIFVRVICIVVSKLKANLMCKTDIKCRLAKSTLTLIPLLGTHEVIFAFVMDEHARGTLRFIKLFTELSFTSFQGLMVAILYCFVNNEVQLEFRKSWERWRLEHLHIQRDSSMKPLKCPTSSLSSGATAGSSMYTATCQASCS
B7: glucagon-like peptide 1 receptor (GLP-1R), wild-type, P43220 K288A (protein)
chain: RPQGATVSLWETVQKWREYRRQCQRSLTEDPPPATDLFCNRTFDEYACWPDGEPGSFVNVSCPWYLPWASSVPQGHVYRFCTAEGLWLQKDNSSLPWRDLSECEESKRGERSSPEEQLLFLYIIYTVGYALSFSALVIASAILLGFRHLHCTRNYIHLNLFASFILRALSVFIKDAALKWMYSTAAQQHQWDGLLSYQDSLSCRLVFLLMQYCVAANYYWLLVEGVYLYTLLAFSVLSEQWIFRLYVSIGWGVPLLFVVPWGIVAYLYEDEGCWTRNSNMNYWLIIRLPILFAIGVNFLIFVRVICIVVSKLKANLMCKTDIKCRLAKSTLTLIPLLGTHEVIFAFVMDEHARGTLRFIKLFTELSFTSFQGLMVAILYCFVNNEVQLEFRKSWERWRLEHLHIQRDSSMKPLKCPTSSLSSGATAGSSMYTATCQASCS
B8: glucagon-like peptide 1 receptor (GLP-1R), wild-type, P43220 Q210A (protein)
chain: RPQGATVSLWETVQKWREYRRQCQRSLTEDPPPATDLFCNRTFDEYACWPDGEPGSFVNVSCPWYLPWASSVPQGHVYRFCTAEGLWLQKDNSSLPWRDLSECEESKRGERSSPEEQLLFLYIIYTVGYALSFSALVIASAILLGFRHLHCTRNYIHLNLFASFILRALSVFIKDAALKWMYSTAAAQHQWDGLLSYQDSLSCRLVFLLMQYCVAANYYWLLVEGVYLYTLLAFSVLSEQWIFRLYVSIGWGVPLLFVVPWGIVKYLYEDEGCWTRNSNMNYWLIIRLPILFAIGVNFLIFVRVICIVVSKLKANLMCKTDIKCRLAKSTLTLIPLLGTHEVIFAFVMDEHARGTLRFIKLFTELSFTSFQGLMVAILYCFVNNEVQLEFRKSWERWRLEHLHIQRDSSMKPLKCPTSSLSSGATAGSSMYTATCQASCS
B9: glucagon-like peptide 1 receptor (GLP-1R), wild-type, P43220 S219A (protein)
chain: RPQGATVSLWETVQKWREYRRQCQRSLTEDPPPATDLFCNRTFDEYACWPDGEPGSFVNVSCPWYLPWASSVPQGHVYRFCTAEGLWLQKDNSSLPWRDLSECEESKRGERSSPEEQLLFLYIIYTVGYALSFSALVIASAILLGFRHLHCTRNYIHLNLFASFILRALSVFIKDAALKWMYSTAAQQHQWDGLLAYQDSLSCRLVFLLMQYCVAANYYWLLVEGVYLYTLLAFSVLSEQWIFRLYVSIGWGVPLLFVVPWGIVKYLYEDEGCWTRNSNMNYWLIIRLPILFAIGVNFLIFVRVICIVVSKLKANLMCKTDIKCRLAKSTLTLIPLLGTHEVIFAFVMDEHARGTLRFIKLFTELSFTSFQGLMVAILYCFVNNEVQLEFRKSWERWRLEHLHIQRDSSMKPLKCPTSSLSSGATAGSSMYTATCQASCS
B10: glucagon-like peptide 1 receptor (GLP-1R), wild-type, P43220 H212A (protein)
chain: RPQGATVSLWETVQKWREYRRQCQRSLTEDPPPATDLFCNRTFDEYACWPDGEPGSFVNVSCPWYLPWASSVPQGHVYRFCTAEGLWLQKDNSSLPWRDLSECEESKRGERSSPEEQLLFLYIIYTVGYALSFSALVIASAILLGFRHLHCTRNYIHLNLFASFILRALSVFIKDAALKWMYSTAAQQAQWDGLLSYQDSLSCRLVFLLMQYCVAANYYWLLVEGVYLYTLLAFSVLSEQWIFRLYVSIGWGVPLLFVVPWGIVKYLYEDEGCWTRNSNMNYWLIIRLPILFAIGVNFLIFVRVICIVVSKLKANLMCKTDIKCRLAKSTLTLIPLLGTHEVIFAFVMDEHARGTLRFIKLFTELSFTSFQGLMVAILYCFVNNEVQLEFRKSWERWRLEHLHIQRDSSMKPLKCPTSSLSSGATAGSSMYTATCQASCS
B11: glucagon-like peptide 1 receptor (GLP-1R), wild-type, P43220 M303A (protein)
chain: RPQGATVSLWETVQKWREYRRQCQRSLTEDPPPATDLFCNRTFDEYACWPDGEPGSFVNVSCPWYLPWASSVPQGHVYRFCTAEGLWLQKDNSSLPWRDLSECEESKRGERSSPEEQLLFLYIIYTVGYALSFSALVIASAILLGFRHLHCTRNYIHLNLFASFILRALSVFIKDAALKWMYSTAAQQHQWDGLLSYQDSLSCRLVFLLMQYCVAANYYWLLVEGVYLYTLLAFSVLSEQWIFRLYVSIGWGVPLLFVVPWGIVKYLYEDEGCWTRNSNANYWLIIRLPILFAIGVNFLIFVRVICIVVSKLKANLMCKTDIKCRLAKSTLTLIPLLGTHEVIFAFVMDEHARGTLRFIKLFTELSFTSFQGLMVAILYCFVNNEVQLEFRKSWERWRLEHLHIQRDSSMKPLKCPTSSLSSGATAGSSMYTATCQASCS
B12: glucagon-like peptide 1 receptor (GLP-1R), wild-type, P43220 T298A (protein)
chain: RPQGATVSLWETVQKWREYRRQCQRSLTEDPPPATDLFCNRTFDEYACWPDGEPGSFVNVSCPWYLPWASSVPQGHVYRFCTAEGLWLQKDNSSLPWRDLSECEESKRGERSSPEEQLLFLYIIYTVGYALSFSALVIASAILLGFRHLHCTRNYIHLNLFASFILRALSVFIKDAALKWMYSTAAQQHQWDGLLSYQDSLSCRLVFLLMQYCVAANYYWLLVEGVYLYTLLAFSVLSEQWIFRLYVSIGWGVPLLFVVPWGIVKYLYEDEGCWARNSNMNYWLIIRLPILFAIGVNFLIFVRVICIVVSKLKANLMCKTDIKCRLAKSTLTLIPLLGTHEVIFAFVMDEHARGTLRFIKLFTELSFTSFQGLMVAILYCFVNNEVQLEFRKSWERWRLEHLHIQRDSSMKPLKCPTSSLSSGATAGSSMYTATCQASCS
B13: glucagon-like peptide 1 receptor (GLP-1R), wild-type, P43220 Y291A (protein)
chain: RPQGATVSLWETVQKWREYRRQCQRSLTEDPPPATDLFCNRTFDEYACWPDGEPGSFVNVSCPWYLPWASSVPQGHVYRFCTAEGLWLQKDNSSLPWRDLSECEESKRGERSSPEEQLLFLYIIYTVGYALSFSALVIASAILLGFRHLHCTRNYIHLNLFASFILRALSVFIKDAALKWMYSTAAQQHQWDGLLSYQDSLSCRLVFLLMQYCVAANYYWLLVEGVYLYTLLAFSVLSEQWIFRLYVSIGWGVPLLFVVPWGIVKYLAEDEGCWTRNSNMNYWLIIRLPILFAIGVNFLIFVRVICIVVSKLKANLMCKTDIKCRLAKSTLTLIPLLGTHEVIFAFVMDEHARGTLRFIKLFTELSFTSFQGLMVAILYCFVNNEVQLEFRKSWERWRLEHLHIQRDSSMKPLKCPTSSLSSGATAGSSMYTATCQASCS

Target: exendin-4, P26349
Test: radioligand inhibition binding (competition with 125I-exendin-4(9-39))
Settings: chain shown with the change;; read off a plot

Point of comparison: B12, log10 ratio -0.1 ΔpKi. Against it:
- B1 — lower, -0.35 ΔpKi
- B2 — lower, -0.25 ΔpKi
- B3 — lower, -0.4 ΔpKi
- B4 — lower, -0.15 ΔpKi
- B5 — lower, -0.25 ΔpKi
- B6 — lower, -1.1 ΔpKi
- B7 — lower, -1.9 ΔpKi
- B8 — lower, -0.25 ΔpKi
- B9 — lower, -0.15 ΔpKi
- B10 — higher, 0.3 ΔpKi
- B11 — lower, -0.7 ΔpKi
- B13 — lower, -0.45 ΔpKi
